The subject of this data set is Escherichia coli TOP10. Nature of the data set: shrunken log2 fold change of peptide-encoding DNA abundance (4.5 h post-induction vs induction); higher = less antimicrobial activity (less host growth inhibition). To be noted: time post-induction: 4.5 h; library: site-saturation at positions 5, 18, 19, 20.
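Further: peptides expressed intracellularly from a pBAD plasmid library in pooled LB shake-flask culture, induced with 0.3% L-arabinose, DNA abundance read by NGS, three biological replicates, DESeq2 with apeglm shrinkage.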

Consider RRIRIRPPRLPRPRPRPFMNPRP, for which the “shrunken log2 fold change” value is -0.16.
The value for RRIRVRPPRLPRPRPRPSVNPRP was -0.291; that for RRIRRRPPRLPRPRPRPFMGPRP was -0.366; that for RRIRIRPPRLPRPRPRPSAPPRP was -0.00138.
The value for RRIRTRPPRLPRPRPRPVIAPRP was -0.189.
The value for RRIRLRPPRLPRPRPRPAFWPRP was 0.292; that for RRIRTRPPRLPRPRPRPMIMPRP was -0.437.
On to RRIRHRPPRLPRPRPRPMMKPRP, for which the “shrunken log2 fold change” value stood at 0.0118.
With RRIRLRPPRLPRPRPRPYQSPRP, the “shrunken log2 fold change” value is -0.524.
As for RRIRGRPPRLPRPRPRPHNEPRP, the “shrunken log2 fold change” value amounted to 0.264.
For the sequence RRIRRRPPRLPRPRPRPCSFPRP, the “shrunken log2 fold change” value was -0.0171.
In the case of RRIRMRPPRLPRPRPRPRSRPRP it was 0.997; in that of RRIRKRPPRLPRPRPRPKADPRP, 0.018; in that of RRIRWRPPRLPRPRPRPASNPRP, -0.0347.
Regarding RRIRKRPPRLPRPRPRPNLKPRP, the “shrunken log2 fold change” value turned out to be 0.286.
The value for RRIRIRPPRLPRPRPRPPRFPRP was 0.0593.
On to RRIRMRPPRLPRPRPRPMNMPRP, for which the “shrunken log2 fold change” value was -0.344.
The value for RRIRLRPPRLPRPRPRPATFPRP was -0.0149.
Take RRIRRRPPRLPRPRPRPQSQPRP: the “shrunken log2 fold change” value was found to be 0.112.
In the case of RRIRDRPPRLPRPRPRPYLFPRP it was 1.15.
In the case of RRIRKRPPRLPRPRPRPMNFPRP, the “shrunken log2 fold change” value is 0.18.
For RRIRQRPPRLPRPRPRPCSQPRP, the “shrunken log2 fold change” value was -0.018.
RRIRKRPPRLPRPRPRPEHWPRP: the “shrunken log2 fold change” value worked out at 0.428.
With RRIRQRPPRLPRPRPRPPCNPRP, the “shrunken log2 fold change” value is -0.115.
Take RRIRGRPPRLPRPRPRPWTNPRP: the “shrunken log2 fold change” value came out at 0.0419.
Turning to RRIRNRPPRLPRPRPRPCSQPRP, the “shrunken log2 fold change” value is -0.0135.
RRIRYRPPRLPRPRPRPWFDPRP: the “shrunken log2 fold change” value is -0.415.
The value for RRIRGRPPRLPRPRPRPGWVPRP was 0.892; that for RRIRPRPPRLPRPRPRPTKQPRP was 0.169; that for RRIRRRPPRLPRPRPRPFPAPRP was 0.731.
For RRIRWRPPRLPRPRPRPLYYPRP, the “shrunken log2 fold change” value is -0.762.
As to RRIRIRPPRLPRPRPRPVSEPRP, the “shrunken log2 fold change” value was -0.164.
Regarding RRIRLRPPRLPRPRPRPHQSPRP, the “shrunken log2 fold change” value was -0.0648.
The value for RRIRRRPPRLPRPRPRPKNNPRP was -0.0641; that for RRIRHRPPRLPRPRPRPAVCPRP was 0.0561.
In the case of RRIRFRPPRLPRPRPRPIYLPRP it was -0.626; in that of RRIRGRPPRLPRPRPRPSQRPRP, 0.181; in that of RRIRGRPPRLPRPRPRPWLSPRP, -0.0504.
Take RRIRQRPPRLPRPRPRPQIGPRP: the “shrunken log2 fold change” value was -0.0384.
On to RRIRLRPPRLPRPRPRPLMAPRP, for which the “shrunken log2 fold change” value is -0.246.
As for RRIRSRPPRLPRPRPRPLHAPRP, the “shrunken log2 fold change” value came to 0.556.
In the case of RRIRDRPPRLPRPRPRPGVIPRP it was -0.00423.
In the case of RRIRDRPPRLPRPRPRPRNPPRP it was -0.0578; in that of RRIRCRPPRLPRPRPRPEPSPRP, 0.146.
As for RRIRARPPRLPRPRPRPFPCPRP, the “shrunken log2 fold change” value is 0.0215.
As to RRIRYRPPRLPRPRPRPRMWPRP, the “shrunken log2 fold change” value came out at 0.0356.
In the case of RRIRERPPRLPRPRPRPMANPRP, the “shrunken log2 fold change” value came to 0.0745.
Turning to RRIRERPPRLPRPRPRPWCQPRP, the “shrunken log2 fold change” value was -0.0135.
As for RRIRFRPPRLPRPRPRPTKRPRP, the “shrunken log2 fold change” value is 0.269.
In the case of RRIRDRPPRLPRPRPRPITNPRP, the “shrunken log2 fold change” value is -0.33.
Turning to RRIRHRPPRLPRPRPRPVSWPRP, the “shrunken log2 fold change” value worked out at 0.442.
RRIRVRPPRLPRPRPRPRRPPRP: the “shrunken log2 fold change” value worked out at 0.34.
The value for RRIRDRPPRLPRPRPRPSTCPRP was -0.0465; that for RRIRWRPPRLPRPRPRPPNTPRP was 0.142.
With RRIRLRPPRLPRPRPRPCGPPRP, the “shrunken log2 fold change” value is -0.107.
With RRIRPRPPRLPRPRPRPAMTPRP, the “shrunken log2 fold change” value was -0.085.
In the case of RRIRIRPPRLPRPRPRPWCLPRP, the “shrunken log2 fold change” value is -1.11.
For RRIRTRPPRLPRPRPRPMNSPRP, the “shrunken log2 fold change” value was -0.191.
The value for RRIRQRPPRLPRPRPRPYESPRP was -0.261; that for RRIRWRPPRLPRPRPRPKGFPRP was 0.437; that for RRIRGRPPRLPRPRPRPWSDPRP was 0.0554.
As for RRIRKRPPRLPRPRPRPVVNPRP, the “shrunken log2 fold change” value is 0.000998.
With RRIRKRPPRLPRPRPRPKDLPRP, the “shrunken log2 fold change” value stood at 0.0142.
The value for RRIRHRPPRLPRPRPRPANYPRP was -0.00316.
Take RRIRGRPPRLPRPRPRPYHQPRP: the “shrunken log2 fold change” value was -0.101.
In the case of RRIRYRPPRLPRPRPRPCRLPRP it was 0.0249.
For RRIRCRPPRLPRPRPRPQPNPRP, the “shrunken log2 fold change” value came out at 0.0742.
In the case of RRIRPRPPRLPRPRPRPFTCPRP it was -0.206; in that of RRIRYRPPRLPRPRPRPMTAPRP, -0.0394; in that of RRIRFRPPRLPRPRPRPTDLPRP, 0.15.
Consider RRIRWRPPRLPRPRPRPKICPRP, for which the “shrunken log2 fold change” value amounted to 0.357.
As to RRIRCRPPRLPRPRPRPFAKPRP, the “shrunken log2 fold change” value was -0.108.
For the sequence RRIRGRPPRLPRPRPRPVPGPRP, the “shrunken log2 fold change” value was 0.742.
In the case of RRIRTRPPRLPRPRPRPTCGPRP, the “shrunken log2 fold change” value was -0.0204.
Regarding RRIRMRPPRLPRPRPRPCSVPRP, the “shrunken log2 fold change” value was -0.0402.
Take RRIRRRPPRLPRPRPRPDVSPRP: the “shrunken log2 fold change” value was -0.0463.
As to RRIRTRPPRLPRPRPRPQFCPRP, the “shrunken log2 fold change” value was -0.486.
The value for RRIRFRPPRLPRPRPRPYWGPRP was -0.186; that for RRIRRRPPRLPRPRPRPIWPPRP was 0.664; that for RRIRTRPPRLPRPRPRPRFDPRP was 0.332.
As for RRIRNRPPRLPRPRPRPPPIPRP, the “shrunken log2 fold change” value stood at 0.801.
Consider RRIRLRPPRLPRPRPRPIICPRP, for which the “shrunken log2 fold change” value amounted to 0.0147.
Consider RRIRTRPPRLPRPRPRPMWLPRP, for which the “shrunken log2 fold change” value was -0.0194.
With RRIRERPPRLPRPRPRPKFTPRP, the “shrunken log2 fold change” value is -0.147.
Turning to RRIRFRPPRLPRPRPRPWMSPRP, the “shrunken log2 fold change” value was -0.0139.
As to RRIRQRPPRLPRPRPRPQRIPRP, the “shrunken log2 fold change” value was -0.226.
Turning to RRIRVRPPRLPRPRPRPGYRPRP, the “shrunken log2 fold change” value was -0.203.
In the case of RRIRWRPPRLPRPRPRPIGYPRP it was -0.0135; in that of RRIRVRPPRLPRPRPRPHQDPRP, -0.264.
Turning to RRIRHRPPRLPRPRPRPEFDPRP, the “shrunken log2 fold change” value amounted to 0.12.
As for RRIRGRPPRLPRPRPRPWSVPRP, the “shrunken log2 fold change” value was -0.131.
RRIRCRPPRLPRPRPRPGAKPRP: the “shrunken log2 fold change” value stood at 0.309.
With RRIRGRPPRLPRPRPRPLTNPRP, the “shrunken log2 fold change” value came out at 0.364.
In the case of RRIRWRPPRLPRPRPRPRYTPRP it was -0.25.
In the case of RRIRSRPPRLPRPRPRPWPDPRP it was -0.14; in that of RRIRKRPPRLPRPRPRPQAVPRP, 0.0562; in that of RRIRWRPPRLPRPRPRPRIAPRP, 0.133.
For the sequence RRIRTRPPRLPRPRPRPSEWPRP, the “shrunken log2 fold change” value was -0.0236.
On to RRIRIRPPRLPRPRPRPQIIPRP, for which the “shrunken log2 fold change” value was -0.213.
Regarding RRIRRRPPRLPRPRPRPIMGPRP, the “shrunken log2 fold change” value was -0.267.
RRIRNRPPRLPRPRPRPIMQPRP: the “shrunken log2 fold change” value was -0.0584.
RRIRIRPPRLPRPRPRPQNWPRP: the “shrunken log2 fold change” value is -0.517.
With RRIRRRPPRLPRPRPRPNAHPRP, the “shrunken log2 fold change” value was found to be 0.0582.
As for RRIRYRPPRLPRPRPRPRAHPRP, the “shrunken log2 fold change” value is -0.121.
As to RRIRIRPPRLPRPRPRPSGKPRP, the “shrunken log2 fold change” value was -0.146.
On to RRIRGRPPRLPRPRPRPCLIPRP, for which the “shrunken log2 fold change” value was -0.183.
As to RRIRPRPPRLPRPRPRPTMAPRP, the “shrunken log2 fold change” value was 0.502.
The value for RRIRNRPPRLPRPRPRPECRPRP was 0.263; that for RRIRGRPPRLPRPRPRPGSYPRP was -0.242.
In the case of RRIRIRPPRLPRPRPRPMCKPRP, the “shrunken log2 fold change” value is -0.262.
For RRIRDRPPRLPRPRPRPAFIPRP, the “shrunken log2 fold change” value was -0.115.
On to RRIRSRPPRLPRPRPRPANFPRP, for which the “shrunken log2 fold change” value is 0.0977.
Regarding RRIRQRPPRLPRPRPRPPGFPRP, the “shrunken log2 fold change” value was found to be 0.0259.
Regarding RRIRWRPPRLPRPRPRPWHTPRP, the “shrunken log2 fold change” value was 0.103.
The value for RRIRKRPPRLPRPRPRPCSEPRP was 0.296; that for RRIRIRPPRLPRPRPRPTGCPRP was -0.0215.
In the case of RRIRRRPPRLPRPRPRPLEMPRP, the “shrunken log2 fold change” value came to 0.181.
On to RRIRERPPRLPRPRPRPTKMPRP, for which the “shrunken log2 fold change” value was -0.22.
As to RRIRMRPPRLPRPRPRPNSHPRP, the “shrunken log2 fold change” value is -0.451.
For RRIRQRPPRLPRPRPRPSTVPRP, the “shrunken log2 fold change” value is -0.534.
RRIRTRPPRLPRPRPRPCAEPRP: the “shrunken log2 fold change” value was -0.11.
Take RRIRPRPPRLPRPRPRPGIMPRP: the “shrunken log2 fold change” value was -0.2.
The value for RRIRFRPPRLPRPRPRPDHWPRP was -0.00426.
Consider RRIRYRPPRLPRPRPRPWCKPRP, for which the “shrunken log2 fold change” value is -0.00141.
Regarding RRIRDRPPRLPRPRPRPHDAPRP, the “shrunken log2 fold change” value stood at 0.0126.

The values above are taken from the supplement of paper PMC9112550, “Optimization of the antimicrobial peptide Bac7 by deep mutational scanning” (BMC Biology, 2022).
